Data reported in publication PMC2570342 (Cell, 2008).

Molecular target: actin filaments (F-actin) (UniProt P68135 1-377)
Experiment: co-sedimentation

IC50: 74 nM
B1: Coronin 1B (recombinant) (natural protein)
chain: MSFRKVVRQSKFRHVFGQPVKNDQCYEDIRVSRVTWDSTFCAVNPKFLAVIVEASGGGAFLVLPLSKTGRIDKAYPTVCGHTGPVLDIDWCPHNDEVIASGSEDCTVMVWQIPENGLTSPLTEPVVVLEGHTKRVGIIAWHPTARNVLLSAGCDNVVLIWNVGTAEELYRLDSLHPDLIYNVSWNHNGSLFCSACKDKSVRIIDPRRGTLVAEREKAHEGARPMRAIFLADGKVFTTGFSRMSERQLALWDPENLEEPMALQELDSSNGALLPFYDPDTSVVYVCGKGDSSIRYFEITEEPPYIHFLNTFTSKEPQRGMGSMPKRGLEVSKCEIARFYKLHERKCEPIVMTVPRKSDLFQDDLYPDTAGPEAALEAEEWVSGRDADPILISLREAYVPSKQRDLKISRRNVLSDSRPAMAPGSSHLGAPASTTTAADATPSGSLARAGEAGKLEEVMQELRALRALVKEQGDRICRLEEQLGRMENGDA
